The source of these data is patent US20150160219.

The series deals with T1, Indicator molecule of Example 3 (synthetic peptide with MMP-9 sequence, HNE sequence, DNP, fluorescent label and terminal biotin via PEG).
T1 chain: GPQGIFGQGAAPVA

B1: human neutrophil elastase (HNE) (Lee biotech, 342-40) (protein)
chain: IVGGRRARPHAWPFMVSLQLRGGHFCGATLIAPNFVMSAAHCVANVNVRAVRVVLGAHNLSRREPTRQVFAVQRIFENGYDPVNLLNDIVILQLNGSATINANVQVAQLPAQGRRLGNGVQCLAMGWGLLGRNRGIASVLQELNVTVVTSLCRRSNVCTLVRGRQAGVCFGDSGSPLVCNGLIHGIASFVRGGCASGLYPDAFAPVAQFVNWIDSIIQ
As for B1, the “detectable limit of the lateral flow cleavage assay” value is given as “approximately 62.5-125 ng/ml”.
